Laboratory results reported in PMC5352868, “Physicochemical and Biological Characterization of the Proposed Biosimilar Tocilizumab” (BioMed Research International, 2017).
Blank lines part the entries; values can stand above or below the binder they belong to.

Key:
[1] = target: T1, soluble interleukin-6 receptor (sIL-6R) (Homo sapiens, UniProt P08887); assay: cell-based or functional assay
[2] = target: T1, soluble interleukin-6 receptor (sIL-6R); assay: SPR; Biacore X100 plus; anti-Fc antibody immobilised on CM5 chip (~2500 RU) captures the antibody sample (1.0 ug/mL, 10 uL/min, 60 s); IL-6R injected 150 to 4.7 ng/mL, 30 uL/min, 180 s, dissociation 500 s, HBS-EP+ buffer; minimum and maximum of four batches; conditions: both partners purified

T1 sequence (P08887 20-365): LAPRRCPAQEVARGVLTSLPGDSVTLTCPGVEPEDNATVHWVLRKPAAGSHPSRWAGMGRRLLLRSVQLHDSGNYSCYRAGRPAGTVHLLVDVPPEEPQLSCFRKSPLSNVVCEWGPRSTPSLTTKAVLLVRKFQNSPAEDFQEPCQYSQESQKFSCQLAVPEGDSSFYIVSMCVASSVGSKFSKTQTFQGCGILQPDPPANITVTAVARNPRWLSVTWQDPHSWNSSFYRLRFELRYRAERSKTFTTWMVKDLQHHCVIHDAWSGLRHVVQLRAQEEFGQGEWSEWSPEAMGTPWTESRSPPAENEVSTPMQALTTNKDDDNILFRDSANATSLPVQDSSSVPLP

DS-1 cell growth inhibition (CCK-8, 72 hrs, antibody 800 ug/mL to 12.21 ng/mL), relative potency (EC50) towards originator tocilizumab, batch 1 of 4; blocks IL-6 with IL-6R on the cells [1]: 98 % relative potency
DS-1 cell growth inhibition (CCK-8, 72 hrs, antibody 800 ug/mL to 12.21 ng/mL), relative potency (EC50) towards originator tocilizumab, batch 2 of 4; blocks IL-6 with IL-6R on the cells [1]: 102 % relative potency
DS-1 cell growth inhibition (CCK-8, 72 hrs, antibody 800 ug/mL to 12.21 ng/mL), relative potency (EC50) towards originator tocilizumab, batch 3 of 4; blocks IL-6 with IL-6R on the cells [1]: 94 % relative potency
DS-1 cell growth inhibition (CCK-8, 72 hrs, antibody 800 ug/mL to 12.21 ng/mL), relative potency (EC50) towards originator tocilizumab, batch 4 of 4; blocks IL-6 with IL-6R on the cells [1]: 105 % relative potency
Kd [2]: 0.92 to 1.17 nM
B1: HS628 (proposed biosimilar tocilizumab) (antibody, V domains shown)
VH: EVQLQESGPGLVRPSQTLSLTCTVSGYSITSDHAWSWVRQPPGRGLEWIGYISYSGITTYNPSLKSRVTMLRDTSKNQFSLRLSSVTAADTAVYYCARSLARTTAMDYWGQGSLVTVSS
VL: DIQMTQSPSSLSASVGDRVTITCRASQDISSYLNWYQQKPGKAPKLLTYYTSRLHSGVPSRFSGSGSGTDFTFTISSLQPEDIATYYCQQGNTLPYTFGQGTKVEIK
notes: found identical to the heavy chain of m1; found identical to the light chain of m1; IgG1; Four batches tested (20130901-20130904); source: Zhejiang Hisun Pharmaceutical; copies: 2 + 2

Kd [2]: 1.08 to 1.78 nM
B2: Originator tocilizumab (Actemra) (antibody, V domains shown)
VH: B1 VH
VL: B1 VL
notes: Recombinant humanized IgG1; also called originator product; source: bought: Roche Pharma (Schweiz) Ltd. (manufactured by Chugai Pharma Manufacturing Co., Ltd.); copies: 2 + 2
